Assay results: US20240327530A1 (ICHNOS SCIENCES, published 2024)

Experiments:
[1] = target: T1, Cynomolgus IL-1RAP on normal cynomolgus dermal fibroblasts (cynomolgus monkey, UniProt P59822 21-570 (rhesus entry)); test: flow cytometry on normal cynomolgus fibroblasts, nonlinear sigmoidal regression
T1 construct: Endogenous protein on cells; also called Cyno IL-1RAP
T1 sequence: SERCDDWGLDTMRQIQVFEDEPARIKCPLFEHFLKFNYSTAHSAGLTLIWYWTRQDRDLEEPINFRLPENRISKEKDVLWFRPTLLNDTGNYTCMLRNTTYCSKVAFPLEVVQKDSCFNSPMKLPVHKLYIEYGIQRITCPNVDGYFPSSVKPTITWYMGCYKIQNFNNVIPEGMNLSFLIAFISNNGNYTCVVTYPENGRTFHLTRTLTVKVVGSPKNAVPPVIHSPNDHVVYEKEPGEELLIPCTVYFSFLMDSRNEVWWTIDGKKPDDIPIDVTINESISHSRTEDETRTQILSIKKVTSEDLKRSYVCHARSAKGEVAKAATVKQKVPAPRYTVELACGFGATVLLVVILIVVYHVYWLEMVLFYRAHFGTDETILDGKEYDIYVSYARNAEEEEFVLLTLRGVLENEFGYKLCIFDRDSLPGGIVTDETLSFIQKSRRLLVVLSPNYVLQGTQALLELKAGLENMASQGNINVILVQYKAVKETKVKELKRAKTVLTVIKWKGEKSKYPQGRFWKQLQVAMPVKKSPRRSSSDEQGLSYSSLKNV
Experimental: Bound antibodies were detected with a monoclonal anti-human IgG PE-Cyanine7 secondary antibody. The graphs show the nonlinear sigmoidal regression binding curves (Relative Geometric Mean Fluorescence Intensity) for each cell lines. Each data point is a measurement for a given cell line. Multiple independent experiments were performed across several donors (HaCaT and HaCaT IL-1RAP KO: 4 and 3 independent experiments; Human Dermal Fibroblasts: 2 independent experiments—total of 5 donors; Human Neutrophil: 2 experiments—total of 6 donors; Cyno Dermal Fibroblasts: 2 independent experiment—total of 4 donors).
In brief, cells were harvested, counted, and plated at 50,000 cells/well in a 96-well round-bottom plate. The plate was centrifuged at 350 g for 3 minutes and the cells were resuspended in 50 μl of FACS® buffer (PBS (1×)+2.5% FCS+2 mM EDTA+0.05% NaN₃) containing various concentrations (ranging from 50 to 0.00003 μg/ml) of either anti-human IL-1RAP_candidate_1 or Isotype control_5 antibodies. […] The cells were gated based on size on FSC vs SSC and analyzed for PE-Cyanine7-geometric mean (geomean) fluorescence intensity using FLOWJO® software. Finally, relative geomean fluorescence intensity was calculated by subtracting fluorescence of anti-human IL-1RAP_candidate_1 per fluorescence of Isotype control_5. […]

[2] = target: T2, Recombinant human IL-1RAP-ECD(S21-E359)-avi-his protein (human, UniProt Q9NPH3 21-359); test: SPR, IgG1 LALA captured on anti-human IgG Fc CM5 chip, human IL-1RAP-avi-his as analyte in a concentration series, 1:1 fit, one representative replicate
T2 construct: Biotinylated where loaded on streptavidin; also called human IL-1RAP-ECD-Avi-His; recombinant human IL-1RAP-avi-his protein
T2 sequence: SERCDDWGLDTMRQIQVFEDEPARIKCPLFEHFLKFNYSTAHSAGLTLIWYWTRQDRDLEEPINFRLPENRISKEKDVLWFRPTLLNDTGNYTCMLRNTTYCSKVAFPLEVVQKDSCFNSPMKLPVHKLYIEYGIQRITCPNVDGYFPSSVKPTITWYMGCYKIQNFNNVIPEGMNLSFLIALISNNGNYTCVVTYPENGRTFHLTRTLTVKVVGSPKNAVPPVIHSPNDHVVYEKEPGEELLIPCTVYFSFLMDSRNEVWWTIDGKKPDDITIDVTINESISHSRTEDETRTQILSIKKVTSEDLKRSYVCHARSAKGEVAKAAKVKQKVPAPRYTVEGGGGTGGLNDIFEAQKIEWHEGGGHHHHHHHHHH
Experimental: Anti-IL-1RAP-C8-RecC-ES IgG1 LALA was immobilized on a Series S CM5 sensor CHIP coupled with anti-human IgG Fc. Human IL-1RAP-avi-his or cynomolgus monkey IL-1RAP-avi-his was injected over immobilized IgG1 LALA in concentration series in HBS-EP+ buffer. One representative replicate for human IL-1RAP and cynomolgus monkey IL-1RAP is presented. Plots are showing data expressed as number of resonance units (abbreviated RU; Y axis) vs. time (s, X axis). Dotted lines represent the measured data while solid lines represent simulated fits. KD: equilibrium dissociation constant; Ka: association constant; Kd: dissociation constant.
Surface plasmon resonance (SPR) was used to measure the binding affinities of the human IgG1 LALA molecules for human and cynomolgus monkey IL-1RAP. Affinities were measured on a BIACORE™ T200 instrument (BIACORE™, GE […]®) at 25° C. and analyzed with the BIACORE™ T200 Evaluation Software (v3.1). Measurements were performed on Series S CM5 sensor chips (BIACORE™ T200, BIACORE™, GE […]®, catalog no. BR100530) coupled with anti-human IgG Fc (BIACORE™, GE […]®, catalog no. BR100839) using a commercial amine coupling kit (BIACORE™, GE […]®, catalog no. BR100050). SPR measurements were performed with recombinant human IL-1RAP-avi-his protein produced in house (SEQ ID NO. 1) or recombinant cynomolgus monkey IL-1RAP-avi-his protein produced in house (SEQ ID NO. 2). The affinities to human and cynomolgus monkey IL-1RAP were assessed by immobilizing anti-IL-1RAP IgG1 LALA molecules and using IL-1RAP proteins as analyte. Around 150 RU of human IgG1 LALA were captured on fc2 of a Series S CM5 sensor chip coupled with anti-human IgG Fc. Recombinant human IL-1RAP-avi-his protein or recombinant cynomolgus monkey IL-1RAP-avi-his protein was injected in multi cycle kinetic at different concentrations ranging from 0.14 to 100 nM, in HBS-EP+ buffer (BIACORE™, GE […]®, catalog no. BR100669) at a flow rate of 30 μl/min for 3 min on fc1 and fc2 (fc1 being used as reference). Dissociation was monitored for 12 min.

B1: Anti-IL-1RAP-C8-RecC-ES-IgG1LALA (antibody, V domains shown)
VH: QVQLVQSGAEVKKPGSSVKVSCKASGSPAEPYAIQWVRQAPGQGLEWMGYIIPSLGGYDYAQKFQGRVTITADESTSTAYMELSSLRSEDTAVYYCARGQTLYESGRQFDIWGQGTLVTVSS
VL: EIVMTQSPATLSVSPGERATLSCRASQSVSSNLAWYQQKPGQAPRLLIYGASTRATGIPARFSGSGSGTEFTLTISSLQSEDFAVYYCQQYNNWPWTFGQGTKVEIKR
notes: also called ISB 880-C8-recC-ES
- Kd [1]: 1.55 nM
- Kd [2]: 0.267 nM
- koff [2]: 0.000169 s⁻¹
- kon [2]: 633000 M⁻¹ s⁻¹
